B1: 3x Flag Matrin 3 wild-type (human) [human] / Aly (AlyRef) of NSC-34 cells [mouse (endogenous in NSC-34)] (parent complex)
chain 1: MSKSFQQSSLSRDSQGHGRDLSAAGIGLLAAATQSLSMPASLGRMNQGTARLASLMNLGMSSSLNQQGAHSALSSASTSSHNLQSIFNIGSRGPLPLSSQHRGDADQASNILASFGLSARDLDELSRYPEDKITPENLPQILLQLKRRRTEEGPTLSYGRDGRSATREPPYRVPRDDWEEKRHFRRDSFDDRGPSLNPVLDYDHGSRSQESGYYDRMDYEDDRLRDGERCRDDSFFGETSHNYHKFDSEYERMGRGPGPLQERSLFEKKRGAPPSSNIEDFHGLLPKGYPHLCSICDLPVHSNKEWSQHINGASHSRRCQLLLEIYPEWNPDNDTGHTMGDPFMLQQSTNPAPGILGPPPPSFHLGGPAVGPRGNLGAGNGNLQGPRHMQKGRVETSRVVHIMDFQRGKNLRYQLLQLVEPFGVISNHLILNKINEAFIEMATTEDAQAAVDYYTTTPALVFGKPVRVHLSQKYKRIKKPEGKPDQKFDQKQELGRVIHLSNLPHSGYSDSAVLKLAEPYGKIKNYILMRMKSQAFIEMETREDAMAMVDHCLKKALWFQGRCVKVDLSEKYKKLVLRIPNRGIDLLKKDKSRKRSYSPDGKESPSDKKSKTDGSQKTESSTEGKEQEEKSGEDGEKDTKDDQTEQEPNMLLESEDELLVDEEEAAALLESGSSVGDETDLANLGDVASDGKKEPSDKAVKKDGSASAAAKKKLKKVDKIEELDQENEAALENGIKNEENTEPGAESSENADDPNKDTSENADGQSDENKDDYTIPDEYRIGPYQPNVPVGIDYVIPKTGFYCKLCSLFYTNEEVAKNTHCSSLPHYQKLKKFLNKLAEERRQKKET
chain 2: not shown

Variants of: B1
Test: co-immunoprecipitation (Aly IP) followed by western blot, quantified; NSC-34 stable cell lines; five replicates; WT vs 154 p = 0.2250; read off a plot

How did the ratio to parent turn out when chain 1 P154S was run?
Its ratio to parent is about 1.6.

Variants of: B1
Test: co-immunoprecipitation (Aly IP) followed by western blot, quantified; NSC-34 stable cell lines; five replicates; WT vs 85: p = 0.6561; read off a plot

Which ratio to parent does the source give for chain 1 S85C here?
Its ratio to parent is about 1.4.

Variants of: B1
Test: co-immunoprecipitation (Aly IP) followed by western blot, quantified; NSC-34 stable cell lines; five replicates; WT vs 622 p = 0.9611; read off a plot

For chain 1 T622A, which ratio to parent is on record?
The ratio to parent was about 1.2.

Variants of: B1
Test: co-immunoprecipitation (Aly IP) followed by western blot, quantified; NSC-34 stable cell lines; five replicates; WT vs 115: p = 0.9670; read off a plot

For chain 1 F115C, which ratio to parent is on record?
Its ratio to parent is about 1.2.

— paper PMC5674072 (2017)
